Patent publication US20240360201A1 (BIOCYTOGEN PHARMACEUTICALS BEIJING, published 2024)

T1: FcγRIIA-H167-Acro (human, UniProt P12318 36-218, limits assumed)
T1 construct: bought; His at 167; also called Human Fc gamma RIIA/CD32a (H167) Protein, His Tag
T1 sequence (looked up): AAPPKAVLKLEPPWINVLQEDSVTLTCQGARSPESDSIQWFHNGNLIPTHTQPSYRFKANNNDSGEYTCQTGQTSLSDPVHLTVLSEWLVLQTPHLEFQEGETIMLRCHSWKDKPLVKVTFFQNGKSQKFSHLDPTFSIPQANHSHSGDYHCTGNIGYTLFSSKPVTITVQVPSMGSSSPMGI

T2: FcγRIIA-R167-Sino (human, UniProt P12318 34-218, limits assumed)
T2 construct: bought; Arg at 167; also called FCRIIA-R167-Sino; CD32A Protein, Human, Recombinant (167 Arg, His Tag)
T2 sequence (looked up): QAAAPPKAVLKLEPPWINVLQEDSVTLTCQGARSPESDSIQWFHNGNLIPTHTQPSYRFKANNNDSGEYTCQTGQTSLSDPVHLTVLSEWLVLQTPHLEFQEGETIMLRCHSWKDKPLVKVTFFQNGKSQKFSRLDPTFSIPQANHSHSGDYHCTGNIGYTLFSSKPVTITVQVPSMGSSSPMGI


Assays:
human CTLA4 (hCTLA4-His) = human CTLA4 (hCTLA4-His) (human, UniProt P16410 36-161, limits assumed); test: SPR Biacore T200; binder captured on protein A chip, target as analyte
Sequence of human CTLA4 (hCTLA4-His) (P16410 36-161 limits assumed): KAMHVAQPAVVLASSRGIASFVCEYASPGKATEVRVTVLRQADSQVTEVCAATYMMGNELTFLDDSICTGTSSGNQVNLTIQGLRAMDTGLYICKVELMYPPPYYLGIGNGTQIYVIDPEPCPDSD
Protocol: Binding affinities of the fusion proteins against human CTLA4 (hCTLA4-His) or human PD-L1 (hPDL1) were measured by surface plasmon resonance (SPR) using Biacore™ T200 biosensor equipped with pre-immobilized protein A sensor chips. A CTLA4 antibody CT4-4G12-IgG1 (CT4) was used as a control. ATOR1015-CD86 (CD86) and KN035-IgG1 (with D265A mutation in heavy chain constant domain) were also used as controls.

FcRn [1] = target: T3, FcRn (human, UniProt P55899 24-297; P61769 21-119); test: SPR Biacore T200; binder captured on protein A chip, Fc receptor as analyte
T3 construct: bought; also called FcγRn; FcRn-Acro
Protocol: (§1) Binding affinities of the fusion proteins PDL1-TGFbR2-3A (IgG1) (or PDL1-TGFbR2-3A-IgG1) and PDL1-TGFbR2-3A-IgG4 to human Fc receptors were measured by surface plasmon resonance (SPR) using Biacore™ T200 biosensor equipped with pre-immobilized protein A sensor chips. The Fc receptors included FcγRI-Sino, FcγRIIA-R167-Sino, FcγRIIIA-F176-Sino, FcγRIIIB-Sino, and FcγRn. A humanized CTLA4 antibody CT4-4G12-IgG1 (CT4-4G12, or 4G12; VH SEQ ID NO: 44, VL SEQ ID NO: 45) was used as a control to test binding affinity to FcγRn.

FcRn [2] = target: T3, FcRn; test: SPR (Biacore T200), antibody captured on protein A sensor chip, FcRn-Acro as analyte; analyte range 1000nm-15.625nm
From the text: (§2) The Fc receptors included FcγRIIB (FcγRIIB-Acro), FcγRIIA (FcγRIIA-H167-Acro), FcγRIIIA (FcγRIIIA-V176-Acro), FcγRIIIB (FcγRIIIB-NA1-Acro), FcγRI (FcγRI-Sino), and FcRn (FcRn-Acro).

FcγRIIIB-NA1-Acro = target: T4, FcγRIIIB-NA1-Acro (human, UniProt O75015 17-200, limits assumed); test: SPR (Biacore T200), antibody captured on protein A sensor chip, Fc receptor as analyte; analyte range 800nm-6.25nm
T4 construct: bought; also called Human Fc gamma RIIIB/CD16b (NA1) Protein, His Tag
T4 sequence (O75015 other isoform, or with tags, fused parts or gaps limits assumed): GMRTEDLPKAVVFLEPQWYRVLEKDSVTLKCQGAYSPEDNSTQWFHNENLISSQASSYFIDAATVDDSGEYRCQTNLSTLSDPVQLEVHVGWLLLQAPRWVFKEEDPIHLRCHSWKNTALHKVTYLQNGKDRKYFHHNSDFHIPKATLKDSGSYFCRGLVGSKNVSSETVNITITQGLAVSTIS
From the text: as §2

FcγRIIA-H167-Acro = target: T1, FcγRIIA-H167-Acro; test: as above
From the text: as §2

FcγRI-Sino [3] = target: T5, FcγRI-Sino (human, UniProt P12314 16-288, limits assumed); test: SPR (Biacore T200), antibody captured on protein A sensor chip, Fc receptor as analyte; analyte range 400nm-6.25nm
T5 construct: bought; also called CD64 Protein, Human, Recombinant (His Tag)
T5 sequence (P12314 16-288 limits assumed): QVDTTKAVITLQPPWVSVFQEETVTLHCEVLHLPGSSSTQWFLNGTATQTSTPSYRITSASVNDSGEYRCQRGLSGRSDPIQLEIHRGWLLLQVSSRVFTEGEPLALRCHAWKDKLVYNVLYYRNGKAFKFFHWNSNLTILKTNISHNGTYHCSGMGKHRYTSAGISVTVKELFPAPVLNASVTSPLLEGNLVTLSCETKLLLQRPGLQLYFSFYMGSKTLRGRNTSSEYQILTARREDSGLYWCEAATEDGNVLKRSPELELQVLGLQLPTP
From the text: as §2

FcγRIIIA-V176-Acro = target: T6, FcγRIIIA-V176-Acro (human, UniProt P08637 17-208); test: SPR (Biacore T200), antibody captured on protein A sensor chip, Fc receptor as analyte; analyte range 400nm-3.125nm
T6 construct: bought; Val at 176; also called Human Fc gamma RIIIA/CD16a (V176) Protein, His Tag
T6 sequence (P08637 17-208 F176V limits assumed): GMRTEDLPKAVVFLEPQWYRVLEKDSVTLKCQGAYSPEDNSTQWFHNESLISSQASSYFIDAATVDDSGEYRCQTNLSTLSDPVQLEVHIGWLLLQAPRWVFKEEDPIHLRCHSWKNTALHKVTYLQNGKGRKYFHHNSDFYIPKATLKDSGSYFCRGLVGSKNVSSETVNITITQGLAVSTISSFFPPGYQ
From the text: as §2

TGFb1 = target: T7, TGFb1 (Homo sapiens (Human), UniProt P01137 279-390, Active TGF-beta-1 is a disulfide-linked homodimer of this chain; one copy is given.); test: SPR; binder as capture solution, TGFb1 as analyte
T7 construct: also called TGFb1 protein
T7 sequence (P01137 279-390 limits assumed): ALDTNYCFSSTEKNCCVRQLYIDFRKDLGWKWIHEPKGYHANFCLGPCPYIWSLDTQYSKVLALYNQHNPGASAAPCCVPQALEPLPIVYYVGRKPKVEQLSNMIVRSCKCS

FcγRIIIB-Sino = target: T8, FcγRIIIB-Sino (human, UniProt O75015 17-200, limits assumed); test: SPR Biacore T200; binder captured on protein A chip, Fc receptor as analyte
T8 construct: bought; also called FCRIIIB-Sino; CD16b Protein, Human, Recombinant (NA1 allotypes, His Tag)
T8 sequence (O75015 other isoform, or with tags, fused parts or gaps limits assumed): as the sequence (O75015 other isoform, or with tags, fused parts or gaps limits assumed) above
Protocol: as §1

FcγRIIA-R167-Sino = target: T2, FcγRIIA-R167-Sino; test: as above
Protocol: as §1

FcγRI-Sino [4] = target: T5, FcγRI-Sino; test: as above
Protocol: as §1

Kd (FcRn [1]) [nM]	Kd (FcRn [2]) [nM]	Kd (FcγRIIIB-NA1-Acro) [nM]	Kd (FcγRIIA-H167-Acro) [nM]	Kd (FcγRI-Sino [3]) [nM]	Kd (FcγRIIIA-V176-Acro) [nM]	Kd (FcγRIIIB-Sino) [nM]	Kd (FcγRIIA-R167-Sino) [nM]	Kd (FcγRI-Sino [4]) [nM]	Binder	also measured
126	–	–	–	–	–	–	–	–	CT4-4G12-IgG1 (antibody, IgG1; also called humanized CTLA4 antibody) heavy: not shown light: DIQMTQSPSFLSASVGDRVTITCRAGENIYSYLAWYQQKPGKAPKLLIYNARTLAEGVPSRFSGSGSGTEFTLTISSLQPEDFATYYCQHHYGSPRTFGGGTKLEIKRTVAAPSVFIFPPSDEQLKSGTASVVCLLNNFYPREAKVQWKVDNALQSGNSQESVTEQDSKDSTYSLSSTLTLSKADYEKHKVYACEVTHQGLSSPVTKSFNRGEC	Kd (human CTLA4 (hCTLA4-His)): 5.91 nM; koff (human CTLA4 (hCTLA4-His)): 0.00151 s⁻¹; kon (human CTLA4 (hCTLA4-His)): 256000 M⁻¹ s⁻¹
–	527	479	426	194	75.5	–	–	–	PDL1-mIL7-3A (antibody, human IgG1, lambda, IgG1 immunocytokine) heavy: EVQLLESGGGLVQPGGSLRLSCAASGFTFSSYIMMWVRQAPGKGLEWVSSIYPSGGITFYADTVKGRFTISRDNSKNTLYLQMNSLRAEDTAVYYCARIKLGTVTTVDYWGQGTLVTVSSASTKGPSVFPLAPSSKSTSGGTAALGCLVKDYFPEPVTVSWNSGALTSGVHTFPAVLQSSGLYSLSSVVTVPSSSLGTQTYICNVNHKPSNTKVDKKVEPKSCDKTHTCPPCPAPELLGGPSVFLFPPKPKDTLMISRTPEVTCVVVDVSHEDPEVKFNWYVDGVEVHNAKTKPREEQYNSTYRVVSVLTVLHQDWLNGKEYKCKVSNKALPAPIEKTISKAKGQPREPQVYTLPPSRDEGGGGSGGGGSECHIKDKEGKAYESVLMISIDELDKMTGTDSNCPNNEPNFFRKHVCDDTKEAAFLNRAARKLKQFLKMNISEEFNVHLLTVSQGTQTLVNCTSKEEKNVKEQKKNDACFLKRLLREIKTCWNKILKGSIGGGGSGGGGSVSLTCLVKGFYPSDIAVEWESNGQPENNYKTTPPVLDSDGSFFLYSKLTVDKSRWQQGNVFSCSVMHEALHNHYTQKSLSLSPGA light: QSALTQPASVSGSPGQSITISCTGTSSDVGGYNYVSWYQQHPGKAPKLMIYDVSNRPSGVSNRFSGSKSGNTASLTISGLQAEDEADYYCSSYTSSSTRVFGTGTKVTVLGQPKANPTVTLFPPSSEELQANKATLVCLISDFYPGAVTVAWKADGSPVKAGVETTKPSKQSNNKYAASSYLSLTPEQWKSHRSYSCQVTHEGSTVEKTVAPTECS	–
–	–	–	–	–	–	–	–	–	M7824 (antibody, human IgG1, lambda, Extracellular domain of TGFbR2 linked at the C terminal of the Fc of the anti-PDL1 antibody; also called bifunctional anti-PD-L1/TGFβ Trap fusion protein) heavy: not shown light: QSALTQPASVSGSPGQSITISCTGTSSDVGGYNYVSWYQQHPGKAPKLMIYDVSNRPSGVSNRFSGSKSGNTASLTISGLQAEDEADYYCSSYTSSSTRVFGTGTKVTVLGQPKANPTVTLFPPSSEELQANKATLVCLISDFYPGAVTVAWKADGSPVKAGVETTKPSKQSNNKYAASSYLSLTPEQWKSHRSYSCQVTHEGSTVEKTVAPTECS	Kd (TGFb1): 83 nM; koff (TGFb1): 0.00852 s⁻¹; kon (TGFb1): 103000 M⁻¹ s⁻¹
–	1250	33100	1050	101	263	1210	692	6.52	PDL1-avelumab (antibody, human IgG1, lambda, IgG1; also called anti-PD-L1 IgG1 antibody; PD-L1 antibody) heavy: not shown light: QSALTQPASVSGSPGQSITISCTGTSSDVGGYNYVSWYQQHPGKAPKLMIYDVSNRPSGVSNRFSGSKSGNTASLTISGLQAEDEADYYCSSYTSSSTRVFGTGTKVTVLGQPKANPTVTLFPPSSEELQANKATLVCLISDFYPGAVTVAWKADGSPVKAGVETTKPSKQSNNKYAASSYLSLTPEQWKSHRSYSCQVTHEGSTVEKTVAPTECS	–
214	–	–	–	–	–	576	1780	273	PDL1-TGFbR2-3A-IgG4 (antibody, IgG4 subtype of PDL1-TGFbR2-3A) heavy: EVQLLESGGGLVQPGGSLRLSCAASGFTFSSYIMMWVRQAPGKGLEWVSSIYPSGGITFYADTVKGRFTISRDNSKNTLYLQMNSLRAEDTAVYYCARIKLGTVTTVDYWGQGTLVTVSSASTKGPSVFPLAPCSRSTSESTAALGCLVKDYFPEPVTVSWNSGALTSGVHTFPAVLQSSGLYSLSSVVTVPSSSLGTKTYTCNVDHKPSNTKVDKRVESKYGPPCPPCPAPEFLGGPSVFLFPPKPKDTLMISRTPEVTCVVVDVSQEDPEVQFNWYVDGVEVHNAKTKPREEQFNSTYRVVSVLTVLHQDWLNGKEYKCKVSNKGLPSSIEKTISKAKGQPREPQVYTLPPSQEEGGGGSGGGGSIPPHVQKSVNNDMIVTDNNGAVKFPQLCKFCDVRFSTCDNQKSCMSNCSITSICEKPQEVCVAVWRKNDENITLETVCHDPKLPYHDFILEDAASPKCIMKEKKKPGETFFMCSCSSDECNDNIIFSEEYNTSNPDGGGGSGGGGSVSLTCLVKGFYPSDIAVEWESNGQPENNYKTTPPVLDSDGSFFLYSRLTVDKSRWQEGNVFSCSVMHEALHNHYTQKSLSLSLGK light: QSALTQPASVSGSPGQSITISCTGTSSDVGGYNYVSWYQQHPGKAPKLMIYDVSNRPSGVSNRFSGSKSGNTASLTISGLQAEDEADYYCSSYTSSSTRVFGTGTKVTVLGQPKANPTVTLFPPSSEELQANKATLVCLISDFYPGAVTVAWKADGSPVKAGVETTKPSKQSNNKYAASSYLSLTPEQWKSHRSYSCQVTHEGSTVEKTVAPTECS	–
–	160	501	115	27.1	17.3	–	–	–	PDL1-mIL7-3A-mIFNa4 (antibody, human IgG1, lambda, 3A-HC format: mIL7 at the 3A site, mIFNa4 at the heavy chain C-terminus through a linker) heavy: EVQLLESGGGLVQPGGSLRLSCAASGFTFSSYIMMWVRQAPGKGLEWVSSIYPSGGITFYADTVKGRFTISRDNSKNTLYLQMNSLRAEDTAVYYCARIKLGTVTTVDYWGQGTLVTVSSASTKGPSVFPLAPSSKSTSGGTAALGCLVKDYFPEPVTVSWNSGALTSGVHTFPAVLQSSGLYSLSSVVTVPSSSLGTQTYICNVNHKPSNTKVDKKVEPKSCDKTHTCPPCPAPELLGGPSVFLFPPKPKDTLMISRTPEVTCVVVDVSHEDPEVKFNWYVDGVEVHNAKTKPREEQYNSTYRVVSVLTVLHQDWLNGKEYKCKVSNKALPAPIEKTISKAKGQPREPQVYTLPPSRDEGGGGSGGGGSECHIKDKEGKAYESVLMISIDELDKMTGTDSNCPNNEPNFFRKHVCDDTKEAAFLNRAARKLKQFLKMNISEEFNVHLLTVSQGTQTLVNCTSKEEKNVKEQKKNDACFLKRLLREIKTCWNKILKGSIGGGGSGGGGSVSLTCLVKGFYPSDIAVEWESNGQPENNYKTTPPVLDSDGSFFLYSKLTVDKSRWQQGNVFSCSVMHEALHNHYTQKSLSLSPGAGGGGSGGGGSGGGGSGGGGSCDLPHTYNLGNKRALTVLEEMRRLPPLSCLKDRKDFGFPLEKVDNQQIQKAQAILVLRDLTQQILNLFTSKDLSATWNATLLDSFCNDLHQQLNDLKACVMQEPPLTQEDSLLAVRTYFHRITVYLRKKKHSLCAWEVIRAEVWRALSSSTNLLARLSEEKE light: QSALTQPASVSGSPGQSITISCTGTSSDVGGYNYVSWYQQHPGKAPKLMIYDVSNRPSGVSNRFSGSKSGNTASLTISGLQAEDEADYYCSSYTSSSTRVFGTGTKVTVLGQPKANPTVTLFPPSSEELQANKATLVCLISDFYPGAVTVAWKADGSPVKAGVETTKPSKQSNNKYAASSYLSLTPEQWKSHRSYSCQVTHEGSTVEKTVAPTECS	–
